The values below come from patent publication US7604993B2, “Combined regulation of neural cell production” (Stem Cell Therapeutics Inc., priority 2001, dated 2009).

“Also recorded” adds a separate entry of the source.

The nature of test [1]: Forelimb inhibition test in focal ischemic injury (stroke) model. In kind it is in vivo. As to conditions: rats with focal ischemic injury; first infusion days 1-7, second infusion days 8-14. From the text:
Adult male Long-Evans rats (250-350 g) were obtained from Charles River Breeding Farms and were adapted to the colony for two weeks prior to any treatment. A week before surgery the rats were given a baseline testing on the behavioral tests.
The animals for the stroke study received unilateral devascularization of the sensorimotor cortex. Using Isoflurane anesthesia, the skin was incised and retracted and the overlying fascia were removed from the skull. A skull opening was made at the following coordinates, taking care not to damage the dura: AP +4.0 to −2.0; L 1.5 to 4 (the parasagittal ridge; Kolb et al., 1997). The dura was cut and retracted from the skull opening. A cotton swab soaked in sterile saline was gently rubbed across the exposed pia and the vessels were removed. A hole was then drilled in the contralateral hemisphere to provide an opening for the cannulae attached to the osmotic minipump at AP −0.5; L 1.5. […]
Six days later the animals were assessed using the behavioral test. […]
In normal rats, swimming is accomplished by propulsion from the hind limbs. […] Inhibition of the forelimbs was assessed by filming animals while swimming. […]
The animals then received various test factors, and the effects of these factors on the forelimb inhibition test and brain anatomy were assessed. […]

Test [2] concerns migrating neuronal progenitor cells. The test can be described thus: Brain anatomical analysis (Cresyl Violet, Doublecortin) in focal ischemic injury (stroke) model. In kind it is in vivo. Particulars: rats with focal ischemic injury, end of week 6. From the text: The animals for the stroke study received unilateral devascularization of the sensorimotor cortex. Using Isoflurane anesthesia, the skin was incised and retracted and the overlying fascia were removed from the skull. A skull opening was made at the following coordinates, taking care not to damage the dura: AP +4.0 to −2.0; L 1.5 to 4 (the parasagittal ridge; Kolb et al., 1997). The dura was cut and retracted from the skull opening. A cotton swab soaked in sterile saline was gently rubbed across the exposed pia and the vessels were removed. A hole was then drilled in the contralateral hemisphere to provide an opening for the cannulae attached to the osmotic minipump at AP −0.5; L 1.5. An osmotic minipump was placed under the skin between the shoulder blades and a tube connected under the skin to the cannulae, which was attached to the skull with fast-drying cement. Once hemostasis had been achieved the scalp was sutured closed with 5-O sterile suture. The animals were given a single injection of Banamine (an analgesic) and returned to their home cage. Sham animals received only anesthesia, the bone opening, and the skin was incised and sutured. […] The animals then received various test factors, and the effects of these factors on the forelimb inhibition test and brain anatomy were assessed. […]

Test [3] has as its system neural stem cells in the subventricular zone. Briefly: Subcutaneous administration, number of neural stem cells in the subventricular zone. In kind it is in vivo.
Test [4] has as its system neural stem cells. Briefly: BrdU labelling of proliferating cells in infused animals. In kind it is in vivo, mice. Particulars: BrdU also given to the infused animals.
In test [5] the test system is neural stem cells. The test can be described thus: Number of EGF-responsive neural stem cells (primary neurospheres) after infusion into the lateral ventricle. In kind it is in vivo, mice. From the text:
Thus, we infused either CNTF or EPO into the lateral ventricles of adult mice for six days, after which we either removed the entire adult ependyma/subependyma to examine the total number of EGF-responsive NSCs or examined the in vivo production of neuronal precursors. […] Therefore, EGF-responsive NSCs turn over continuously in vivo, a sub-population of which spontaneously differentiates into restricted glial precursors, while another sub-population is directed to the neuronal restricted linage by EPO.
The protocols for neural stem cell culture are described in detail in U.S. Pat. No. 5,750,376 or Shingo et al., 2001. Briefly, embryonic neural stem cells were prepared from E14 medial and lateral ganglionic eminences. Adult neural stem cells were prepared from the subventricular zone of adult mice. The tissue was cultured in basal medium containing 20 ng/ml EGF, or other growth factors as indicated in each case, to form neurospheres. The composition of the basal medium is as follows: DMEM/F12 (1:1); glucose (0.6%); glutamine (2 mM); sodium bicarbonate (3 mM); HEPES (5 mM); insulin (25 μg/ml); transferrin (100 μg/ml); progesterone ([…]); putrescine (60 μM); and selenium chloride (30 nM). […]

B1: prolactin: prolactin, first infusion days 1-7, then CSF (Group 3) (protein, UniProt P01236 29-227, looked up)
Prolactin: LPICPGGAARCQVTLRDLFDRAVVLSHYIHNLSSEMFSEFDKRYTHGRGFITKAINSCHTSSLATPEDKEQAQQMNQKDFLSLIVSILRSWNEPLYHLVTEVRGMQEAPEAILSKAVEIEEQTKRLLEGMELIVSQVHPETKENEIYPVWSGLPSLQMADEESRLSAYYNLLHCLRRDSHKIDNYLKLLKCRIIHNNNC
With B1, the “forepaw inhibition / motor function in the forelimb inhibition test” value in test [1] was “improvement of motor functions; also recorded: acted to correct abnormal positioning of the forelimb during swimming; also recorded: recovery from a representative symptom of stroke; also recorded: improved the motor function”. Also, in test [2], the “doublecortin staining / doublecortin positive cells in the brain” value was “high degree of doublecortin staining”. Besides, the “delivery by subcutaneous administration to modulate the number of neural stem cells in the subventricular zone” value in test [3] was “effectively delivered”.

B2: CNTF: rat recombinant CNTF, ciliary neurotrophic factor (protein, UniProt P20294 1-200, looked up)
Ciliary neurotrophic factor: MAFAEQTPLTLHRRDLCSRSIWLARKIRSDLTALMESYVKHQGLNKNINLDSVDGVPVASTDRWSEMTEAERLQENLQAYRTFQGMLTKLLEDQRVHFTPTEGDFHQAIHTLMLQVSAFAYQLEELMVLLEQKIPENEADGMPATVGDGGLFEKKLWGLKVLQELSQWTVRSIHDLRVISSHQMGISALESHYGAKDKQM
Take B2: the “number of BrdU positive cells” value with neural stem cells [4] was “did not increase”. Further, in the test with neural stem cells [5] (infusion into adult mice for six days), the “increase of the number of primary neurospheres that can be obtained from the brain” value was “about 25%”. For the same molecule, the “increase in the number of NSCs” value in the test with neural stem cells [5] (infusion into lateral ventricles of adult mice for six days) is given as 20-25%.
